These results are taken from the RNAGym collection of RNA variant scans (doi:10.1073/pnas.2313332121).

The labels stand for the following.
B1: TPR t1 (parent)
chain: GACCAAUCUGCCCUCAGAGCUCGAGAACAUCUUCGGAUGCAGAGGAGGCAGGCUUCGGUGGCGCGAUAGCGCCAACGUCCUCAACCUCCAAUGCAUCCCACCACAUGAUGAUGCCUGAAGAGCCUUGGUUUUUUG

Variants of B1 are the subject of the data set. Put plainly: polymerase ribozyme fitness, log enrichment relative to wild type (log ratio); higher = more active; in vitro selection for triplet polymerase activity. The method, boiled down:
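After PCR construction and transcription, each subunit's mutant library from a heterodimeric triplet polymerase ribozyme was annealed with a biotinylated primer, the partner subunit and triplets. Incubation was frozen, at −7 °C, and extended constructs were gel-excised, bound to streptavidin beads and amplified by RT-PCR, in one selection round done in triplicate. Fitness is the logarithm of a genotype's enrichment divided by that of the wild type, from inverse-variance-weighted replicate averages of Illumina-sequenced inputs and outputs. The base of the logarithm is 2, and genotypes needed ≥10 input reads and ≥1 read per output.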
Take C12A G120C: the “polymerase ribozyme fitness (log ratio)” value is 0.84.

With U7G C49A, the “polymerase ribozyme fitness (log ratio)” value stood at 0.309. With C82U A119U, the “polymerase ribozyme fitness (log ratio)” value was -0.592. In the case of C49A C53G, the “polymerase ribozyme fitness (log ratio)” value was -0.789. With G71U C114U the figure was -1.41. With G60A C82A U129G the figure was -1.13; with G42U G71U C101U, -1.49; with C72G A90U C101A G122A, -3.94. For the variant C28A G45A C53U G61A G110C, the “polymerase ribozyme fitness (log ratio)” value is -1.65. As to A18U G47U, the “polymerase ribozyme fitness (log ratio)” value was -3.96. With A18U C70U A84G the figure was -6.3. A2G U32C C40G C49A A68G C73U: the “polymerase ribozyme fitness (log ratio)” value was -5.24. As to G48C C62U U92G, the “polymerase ribozyme fitness (log ratio)” value is -3.68. The same measure for C34G C53G C104A: -4.3; for G69U C80U C102U C104U G120C: 1.02. Regarding C11G C15A A95U U130A, the “polymerase ribozyme fitness (log ratio)” value was -2.76.

Regarding G25C C89A, the “polymerase ribozyme fitness (log ratio)” value is -7.16. The same measure for G10A C13A U112A: 0.644; for A95C G110U: -2.32. The same measure for G17A C28G G48A U96G A100G U112G A121C: -6.43; for C13G A43U G58A: -4.45.

C15A C114A: the “polymerase ribozyme fitness (log ratio)” value is -4.98. The same measure for U38G U96A C101U: -2.15; for C13U A41G G48A G57U U132C: -1.47; for C12U C13G C49U C53U G127A: -3.32.

On to C8U C15U C53A, for which the “polymerase ribozyme fitness (log ratio)” value is -0.442. The same measure for U78A U133A: -0.443; for G42A G110U: -3.64; for C4G U112G: -0.359.

C4U A75U A95C U96A G120A: the “polymerase ribozyme fitness (log ratio)” value is -1.94. The same measure for A6G G71A C82A A111U: -4.56. Consider C11G G44A C56G C82G C88U, for which the “polymerase ribozyme fitness (log ratio)” value was -2.81. As for G61C C80A G107U C114U G127C, the “polymerase ribozyme fitness (log ratio)” value was -5.81.

For the variant C20A C73U C97U A121C, the “polymerase ribozyme fitness (log ratio)” value is -1.59. As to C20A C40A C115A, the “polymerase ribozyme fitness (log ratio)” value is -4.58. With U9C C49A C53U C88U U133A the figure was -0.445; with C28U U92C, -3.43. With C4A G52A C73A the figure was -2.51.

On to C4G A29G A74C A83U, for which the “polymerase ribozyme fitness (log ratio)” value is -4.38. With U9C G17U C72G A83C the figure was -1.63; with C49G G61A U81C G120C, -3.67; with U32A C40U C101A C124A, -3.05. Regarding C56A G93U U112A U116G, the “polymerase ribozyme fitness (log ratio)” value was -3.29. With C11U G58A U126G the figure was -2.59. Turning to G93C A100C U130A, the “polymerase ribozyme fitness (log ratio)” value was -2.66.

On to C8U A26G U54C C72U, for which the “polymerase ribozyme fitness (log ratio)” value is -2.88. On to G10C C49A G51C G57C C72U, for which the “polymerase ribozyme fitness (log ratio)” value is -4.25.

With A46G G69A G110A, the “polymerase ribozyme fitness (log ratio)” value was -4.77. The same measure for C28U U112G: -1.97; for C40U C115U U125G U133C: -0.584. In the case of U7G C72A A105U U125G, the “polymerase ribozyme fitness (log ratio)” value is -2.26.

With C12G C70A A118G, the “polymerase ribozyme fitness (log ratio)” value was -0.792.

Consider U54A A74U C124G, for which the “polymerase ribozyme fitness (log ratio)” value turned out to be 0.443. Regarding C12A G23A G77U A119G, the “polymerase ribozyme fitness (log ratio)” value was -5.67. The same measure for G113C U125A: -3.4; for A16G G71U: -0.398; for A83C C114U: -1.78. C12U C15A A37C G52U C72U U116G: the “polymerase ribozyme fitness (log ratio)” value is -3.77. Consider C82U C85A C86U C97A C124G, for which the “polymerase ribozyme fitness (log ratio)” value is -5.65. Take G60A C80U C89U U129G: the “polymerase ribozyme fitness (log ratio)” value was -3.44. Regarding U55A G63C C98U G113U, the “polymerase ribozyme fitness (log ratio)” value is -4.52. The same measure for A43U U112G G127U: -2.19; for C34U G61C C94U C98U G120U G127U: -5.79. G47A C86A G113A: the “polymerase ribozyme fitness (log ratio)” value was -2.16.

C62G C70A C85A C98U C124U: the “polymerase ribozyme fitness (log ratio)” value was -6.66.

Turning to C73A U87C A105U, the “polymerase ribozyme fitness (log ratio)” value was -1.35. In the case of C15U C73U G77A C98A, the “polymerase ribozyme fitness (log ratio)” value is -8.01.

With C80A C115U, the “polymerase ribozyme fitness (log ratio)” value is -4.97. Take A37U G47C C49U: the “polymerase ribozyme fitness (log ratio)” value is -2.66. The same measure for G35A G58C G60U: -5.24. As for A6U G77U U78C C86U G107C U112G, the “polymerase ribozyme fitness (log ratio)” value was -5.66. Turning to C73U G77A G120A, the “polymerase ribozyme fitness (log ratio)” value came out at 0.241.

Take C85G C94U: the “polymerase ribozyme fitness (log ratio)” value is -2.67. The same measure for U9A G77U C123U: 1.84; for U9A A26U C101G: -4.48. For A27C G44U C64U, the “polymerase ribozyme fitness (log ratio)” value is -4.14. Turning to G61A G71U A95U U106G G120U, the “polymerase ribozyme fitness (log ratio)” value is -5.9. The same measure for A37U G69C C72U C85U: -1.89; for A46C C53U U54G G120U: -0.194; for G47U C49G C62U C88A A95C C123A: -4.59. With G42A G44A C62U G63A U112G G120C the figure was -5.64; with G48C G69A, -3.69.

Consider C11G C76G, for which the “polymerase ribozyme fitness (log ratio)” value is -0.0651. The same measure for C53U G60A A83C U87C: -0.3.
